The target of one data set is PKR (Homo sapiens) (UniProt P19525). The following applies: cited from earlier work.
Data set [1] deals with the molecule itself. Briefly: AUC.
Data set [2] deals with the molecule itself. The experiment in a line: AUC. The source holds these as a separate data set.

By Kd is commonly meant the equilibrium constant for the complex coming apart. The stoichiometry N is a count of units in the complex or per binding partner.

Read-outs that look alike come from different tables or passages of the source.

On to PKR (from UniProt P19525), for which the dissociation constant Kd with PKR (Homo sapiens) is 500 µM.

B1: PKRΔVB (human PKR with the whole interdomain linker, variable and basic regions, deleted) (enzyme, UniProt P19525 1-551, looked up)
chain: MAGDLSAGFFMEELNTYRQKQGVVLKYQELPNSGPPHDRRFTFQVIIDGREFPEGEGRSKKEAKNAAAKLAVEILNKEKKAVSPLLLTTTNSSEGLSMGNYIGLINRIAQKKRLTVNYEQCASGVHGPEGFHYKCKMGQKEYSIGTGSTKQEAKQLAAKLAYLQILETKYTVDKRFGMDFKEIELIGSGGFGQVFKAKHRIDGKTYVIKRVKYNNEKAEREVKALAKLDHVNIVHYNGCWDGFDYDPETSDDSLESSDYDPENSKNSSRSKTKCLFIQMEFCDKGTLEQWIEKRRGEKLDKVLALELFEQITKGVDYIHSKKLIHRDLKPSNIFLVDTKQVKIGDFGLVTSLKNDGKRTRSKGTLRYMSPEQISSQDYGKEVDLYALGLILAELLHVCDTAFETSKFFTDLRDGIISDIFDKKEKTLLQKLLSKKPEDRPNTSEILRTLTVWKKSPEKNERHTC
Turning to B1, in the data set “AUC [1]”, the Kd was determined as 1730 µM and the “stoichiometry N” value was determined as 2.

B2: PKRΔV (human PKR with the variable region of the interdomain linker deleted) (enzyme, UniProt P19525 1-551, looked up)
chain: MAGDLSAGFFMEELNTYRQKQGVVLKYQELPNSGPPHDRRFTFQVIIDGREFPEGEGRSKKEAKNAAAKLAVEILNKEKKAVSPLLLTTTNSSEGLSMGNYIGLINRIAQKKRLTVNYEQCASGVHGPEGFHYKCKMGQKEYSIGTGSTKQEAKQLAAKLAYLQILMNGLRNNQRKAKRSLAPRFDLPDMKETKYTVDKRFGMDFKEIELIGSGGFGQVFKAKHRIDGKTYVIKRVKYNNEKAEREVKALAKLDHVNIVHYNGCWDGFDYDPETSDDSLESSDYDPENSKNSSRSKTKCLFIQMEFCDKGTLEQWIEKRRGEKLDKVLALELFEQITKGVDYIHSKKLIHRDLKPSNIFLVDTKQVKIGDFGLVTSLKNDGKRTRSKGTLRYMSPEQISSQDYGKEVDLYALGLILAELLHVCDTAFETSKFFTDLRDGIISDIFDKKEKTLLQKLLSKKPEDRPNTSEILRTLTVWKKSPEKNERHTC
Take B2: in “AUC [2]”, the Kd was found to be 1100 µM and the “stoichiometry N” value amounted to 2.
